Source: the RNAGym collection of RNA variant scans (doi:10.7554/elife.80360)

B1: Hairpin Ribozyme (parent)
chain: GUCCUCUUUCACGUGCGCGUGAAAGAGAGAAGUGAACCAGAGAAACACACGUUGUGGUAUAUUACCUGGUA

Variants of: B1
Experiment: self-cleavage, relative activity (ratio to wild type); higher = more cleavage; co-transcriptional

Variant | self-cleavage
GUCCUCUUUCACGUGCGCAUGAAAGAGAGAAGUGAACCAGAGAAACACACGUUGUGGUAUAUUACCUGUUA [G19A G69U] | 0.213
GUCCUCUUUCACGUGCGCCUGAAAGACAGAAGUGAACCAGAGAAACACACGUUGUGGUAUAUUACCUGGUA [G19C G27C] | 0.133
GUCCUCUUUCACGUGCGCCUGAAAGAAAGAAGUGAACCAGAGAAACACACGUUGUGGUAUAUUACCUGGUA [G19C G27A] | 0.361
GUCCUCUUUCACGUGCGCCUGAAAGAUAGAAGUGAACCAGAGAAACACACGUUGUGGUAUAUUACCUGGUA [G19C G27U] | 0.27
GUCCUCUUUCACGUGCGCCUGAAAGAGAGAAGUGAACCAGUGAAACACACGUUGUGGUAUAUUACCUGGUA [G19C A41U] | 1.11
GUCCUCUUUCACGUGCGCCUGAAAGAGAGAAGUGAACCAGCGAAACACACGUUGUGGUAUAUUACCUGGUA [G19C A41C] | 1.24
GUCCUCUUUCACGUGCGCAAGAAAGAGAGAAGUGAACCAGAGAAACACACGUUGUGGUAUAUUACCUGGUA [G19A U20A] | 0.762
GUCCUCUUUCACGUGCGCACGAAAGAGAGAAGUGAACCAGAGAAACACACGUUGUGGUAUAUUACCUGGUA [G19A U20C] | 1.12
GUCCUCUUUCACGUGCGCCUGAAAGAGAGAAGUGAACCAGAGAAAGACACGUUGUGGUAUAUUACCUGGUA [G19C C46G] | 0.088
GUCCUCUUUCACGUGCGCCUGAAAGAGAGAAGUGAACCAGAGAAAUACACGUUGUGGUAUAUUACCUGGUA [G19C C46U] | 0.229
GUCCUCUUUCACGUGCGCCUGAAAGAGAGAAGUGAACCAGAGAAACACACGUUGUGGUAUAAUACCUGGUA [G19C U62A] | 0.228
GUCCUCUUUCACGUGCGCCUGAAAGAGAGAAGUGAACCAGAGAAACACACGUUGUGGUAUACUACCUGGUA [G19C U62C] | 0.283
GUCCUCUUUCACGUGCGCCUGAAAGAGAGAAGUGAACCAGAGAAACACACGUUGUGGUAUAUUACCUGUUA [G19C G69U] | 0.212
GUCCUCUUUCACGUGCGCAUGAAAGAGAGAAGUGAACCAGAGAAACACACGGUGUGGUAUAUUACCUGGUA [G19A U52G] | 0.735
GUCCUCUUUCACGUGCGCCUGAAAGAGAGAAGUGAACCAGAGAAACACACGUUGUGGUAUAUCACCUGGUA [G19C U63C] | 0.168
GUCCUCUUUCACGUGCGCCUGAAAGAGAGAAGUGAACCAGAGAAACACACGUUGUGGUAUAUAACCUGGUA [G19C U63A] | 0.107
GUCCUCUUUCACGUGCGCCUGAAAGAGAGAAGUGAACCAGAGAAACACACGUUGUGGUAUAUGACCUGGUA [G19C U63G] | 0.123
GUCCUCUUUCACGUGCGCCUGAAAGAGAGAAGUGAACCAGAGAAACACACGUUGUGGUAUAUUACCUGGUU [G19C A71U] | 0.722
GUCCUCUUUCACGUGCGCCUGAAAGAGAGAAGUGAACCAGAGAAACACACGUUGUGGUAUAUUACCUGGUG [G19C A71G] | 1.07
GUCCUCUUUCACGUGCGCCUGAAAGAGAGAAGUGAACCAGAGAAACACACGUUGUUGUAUAUUACCUGGUA [G19C G56U] | 0.0712
GUCCUCUUUCACGUGCGCCUGAAAGAGAGAAGUGAACCAGAGAUACACACGUUGUGGUAUAUUACCUGGUA [G19C A44U] | 0.0473
GUCCUCUUUCACGUGCGCAUGAAAGAGAGAAGUGAACCAGAGAAACACACGUUGUGGUAUAUUACCAGGUA [G19A U67A] | 0.264
GUCCUCUUUCACGUGCGCCUGAAAGAGAGAAGUGAACCAGAGCAACACACGUUGUGGUAUAUUACCUGGUA [G19C A43C] | 0.11
GUCCUCUUUCACGUGCGCUUGCAAGAGAGAAGUGAACCAGAGAAACACACGUUGUGGUAUAUUACCUGGUA [G19U A22C] | 0.625
GUCCUCUUUCACGUGCGCAUGAAAGAGAGAAGUGAACCAGAUAAACACACGUUGUGGUAUAUUACCUGGUA [G19A G42U] | 0.331
GUCCUCUUUCACGUGCGCCUGUAAGAGAGAAGUGAACCAGAGAAACACACGUUGUGGUAUAUUACCUGGUA [G19C A22U] | 0.487

Variant | self-cleavage
GUCCUCUUUCACGUGCGCAUGAAAGAGAGAAGUGAACCAAAGAAACACACGUUGUGGUAUAUUACCUGGUA [G19A G40A] | 0.226
GUCCUCUUUCACGUGCGCAUGAAAGAGAGAAGUGAACCAUAGAAACACACGUUGUGGUAUAUUACCUGGUA [G19A G40U] | 0.179
GUCCUCUUUCACGUGCGCCUGAAAGAGAGAAGUAAACCAGAGAAACACACGUUGUGGUAUAUUACCUGGUA [G19C G34A] | 1.08
GUCCUCUUUCACGUGCGCCUGAAAUAGAGAAGUGAACCAGAGAAACACACGUUGUGGUAUAUUACCUGGUA [G19C G25U] | 0.623
GUCCUCUUUCACGUGCGCCUGAAAAAGAGAAGUGAACCAGAGAAACACACGUUGUGGUAUAUUACCUGGUA [G19C G25A] | 0.512
GUCCUCUUUCACGUGCGCAUGAAAGAGAGAAGUGAACCAGAGAAACACACGUUGUGGUAUAUUACCUGGGA [G19A U70G] | 0.917
GUCCUCUUUCACGUGCGCCUGAAAGAGAGAAGUGAACCGGAGAAACACACGUUGUGGUAUAUUACCUGGUA [G19C A39G] | 0.28
GUCCUCUUUCACGUGCGCCUGAAAGAGAGAAGUGAACCAGAGAAACACACGGUGUGGUAUAUUACCUGGUA [G19C U52G] | 0.898
GUCCUCUUUCACGUGCGCAUGAAAGAGAGAAGUGAACCAGAGAAACACACUUUGUGGUAUAUUACCUGGUA [G19A G51U] | 0.881
GUCCUCUUUCACGUGCGCAUGAAAGAGAGAAGUGAACCAGAGAAACACACCUUGUGGUAUAUUACCUGGUA [G19A G51C] | 0.702
GUCCUCUUUCACGUGCGCCUGAAAGAGAGAAGUGAACCAGAGAAACACACGUUGUGGUAUAUUACCCGGUA [G19C U67C] | 0.176
GUCCUCUUUCACGUGCGCCUGAAAGAGAGUAGUGAACCAGAGAAACACACGUUGUGGUAUAUUACCUGGUA [G19C A30U] | 0.161
GUCCUCUUUCACGUGCGCCUGAAUGAGAGAAGUGAACCAGAGAAACACACGUUGUGGUAUAUUACCUGGUA [G19C A24U] | 0.533
GUCCUCUUUCACGUGCGCCUGAAGGAGAGAAGUGAACCAGAGAAACACACGUUGUGGUAUAUUACCUGGUA [G19C A24G] | 0.889
GUCCUCUUUCACGUGCGCCUGAACGAGAGAAGUGAACCAGAGAAACACACGUUGUGGUAUAUUACCUGGUA [G19C A24C] | 0.639
GUCCUCUUUCACGUGCGCCUGAAAGAGAGAAGUGAACCAGAGAAACACACGUUGUGGAAUAUUACCUGGUA [G19C U58A] | 0.569
GUCCUCUUUCACGUGCGCCUGAAAGAGAGAAGGGAACCAGAGAAACACACGUUGUGGUAUAUUACCUGGUA [G19C U33G] | 0.0947
GUCCUCUUUCACGUGCGCAUGAAAGAGAGAAGUGAACCAGAGAAACACACGUUGUGGUAUACUACCUGGUA [G19A U62C] | 0.278
GUCCUCUUUCACGUGCGCAUGAAAGAGAGAAGUGAACCAGAGAAACACACGUUGUGGUAUAUGACCUGGUA [G19A U63G] | 0.2
GUCCUCUUUCACGUGCGCCUGAAAGAGAGAAGUGAACCAGAGAAACACACGUUGUGGUAUAUUAGCUGGUA [G19C C65G] | 0.25
GUCCUCUUUCACGUGCGCCUGAAAGAGAGAAGUGAACCAGAGAAACACACGUUGUGGUAUAUUAACUGGUA [G19C C65A] | 0.877
GUCCUCUUUCACGUGCGCCUGAAAGAGAGAAGUGAACCAGAGAAACAUACGUUGUGGUAUAUUACCUGGUA [G19C C48U] | 0.132
GUCCUCUUUCACGUGCGCCUGAAAGAGAGAAGUGAACCAGAGAAACAAACGUUGUGGUAUAUUACCUGGUA [G19C C48A] | 0.122
GUCCUCUUUCACGUGCGCCUGAAAGAGAGAAGUGAACCAGAUAAACACACGUUGUGGUAUAUUACCUGGUA [G19C G42U] | 0.24
GUCCUCUUUCACGUGCGCCUGAAAGAGAGAAGUGACCCAGAGAAACACACGUUGUGGUAUAUUACCUGGUA [G19C A36C] | 0.374
GUCCUCUUUCACGUGCGCCUGAAAGAGAGACGUGAACCAGAGAAACACACGUUGUGGUAUAUUACCUGGUA [G19C A31C] | 0.143

Variant | self-cleavage
GUCCUCUUUCACGUGCGCAUGAAAGAGAGAAGUGAACCAGAGAAACACACGUUGUGGUAUAUUACCUCGUA [G19A G68C] | 0.194
GUCCUCUUUCACGUGCGCAUGAAAGAGAGAAGUGAACCAGAGAAACACACGUUGUGGUAUAUUACCUAGUA [G19A G68A] | 0.265
GUCCUCUUUCACGUGCGCAUGAAAGAGAGAAGUGAACCAGAGAAACACACGUUGUUGUAUAUUACCUGGUA [G19A G56U] | 0.123
GUCCUCUUUCACGUGCGCCUGAAAGAGACAAGUGAACCAGAGAAACACACGUUGUGGUAUAUUACCUGGUA [G19C G29C] | 0.111
GUCCUCUUUCACGUGCGCAUGAAAGAGAGAAGUGAACCAGAGAAACACACGUUGUGGGAUAUUACCUGGUA [G19A U58G] | 0.583
GUCCUCUUUCACGUGCGCAUGAAAGAGAGAAGUGAACCAGAGAAACACACGUUGUGGAAUAUUACCUGGUA [G19A U58A] | 0.557
GUCCUCUUUCACGUGCGCCUGAGAGAGAGAAGUGAACCAGAGAAACACACGUUGUGGUAUAUUACCUGGUA [G19C A23G] | 0.611
GUCCUCUUUCACGUGCGCCUGAAAGAGAGAAGUGAACCAGAGAAACGCACGUUGUGGUAUAUUACCUGGUA [G19C A47G] | 0.277
GUCCUCUUUCACGUGCGCCUGAAAGAGAGAAGUGAACCAGAGAAACACACGUUGUGGUAUAUUGCCUGGUA [G19C A64G] | 0.545
GUCCUCUUUCACGUGCGCAUAAAAGAGAGAAGUGAACCAGAGAAACACACGUUGUGGUAUAUUACCUGGUA [G19A G21A] | 0.659
GUCCUCUUUCACGUGCGCCUGAAAGAGAGAAGUGAACCAGAGAAACACACGUUGUGGUUUAUUACCUGGUA [G19C A59U] | 0.19
GUCCUCUUUCACGUGCGCCUGAAAGAGAGAAGUGAACCAGAGAAACACACGUUGUGGUCUAUUACCUGGUA [G19C A59C] | 0.225
GUCCUCUUUCACGUGCGCCUGAAAGUGAGAAGUGAACCAGAGAAACACACGUUGUGGUAUAUUACCUGGUA [G19C A26U] | 0.719
GUCCUCUUUCACGUGCGCAUGAAAGAGAGAAGUGAACCAGAGAAACACACGUCGUGGUAUAUUACCUGGUA [G19A U53C] | 0.854
GUCCUCUUUCACGUGCGCAUGAAAGAGAGAAGUGAACCAGAGAAACACACGUGGUGGUAUAUUACCUGGUA [G19A U53G] | 0.691
GUCCUCUUUCACGUGCGCCUGAAAGAGAGAAGUGAACCAGAGAAACACACGUUCUGGUAUAUUACCUGGUA [G19C G54C] | 0.406
GUCCUCUUUCACGUGCGCCUGAAAGAGAGAAGUGAACCAGAGAAACACAAGUUGUGGUAUAUUACCUGGUA [G19C C50A] | 0.264
GUCCUCUUUCACGUGCGCAUGAAAGAGAAAAGUGAACCAGAGAAACACACGUUGUGGUAUAUUACCUGGUA [G19A G29A] | 0.173
GUCCUCUUUCACGUGCGCAUGAAAGAGACAAGUGAACCAGAGAAACACACGUUGUGGUAUAUUACCUGGUA [G19A G29C] | 0.184
GUCCUCUUUCACGUGCGCCUGAAAGAGAGAAGUGAACCAGAGAAACACACGUCGUGGUAUAUUACCUGGUA [G19C U53C] | 0.679
GUCCUCUUUCACGUGCGCCUGAAAGAGAGAACUGAACCAGAGAAACACACGUUGUGGUAUAUUACCUGGUA [G19C G32C] | 0.0926
GUCCUCUUUCACGUGCGCCUCAAAGAGAGAAGUGAACCAGAGAAACACACGUUGUGGUAUAUUACCUGGUA [G19C G21C] | 0.493
GUCCUCUUUCACGUGCGCAUGAAAGAGAGAAGCGAACCAGAGAAACACACGUUGUGGUAUAUUACCUGGUA [G19A U33C] | 0.0941
GUCCUCUUUCACGUGCGCAUGAAAGAGAGAAGGGAACCAGAGAAACACACGUUGUGGUAUAUUACCUGGUA [G19A U33G] | 0.175
